The supplement of paper PMC10065799, “High-throughput profiling of sequence recognition by tyrosine kinases and SH2 domains using bacterial peptide display” (eLife, 2023)
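Note: 11-residue human phosphosite peptides and single-mutation variants displayed on the E. coli surface, counted by deep sequencing, each peptide's frequency after selection divided by its frequency in the unselected input library; frequency after pTyr selection over input frequency; kinase dosed for 20-30% of maximal phosphorylation in three min.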

The sequences below were run against Hck (UniProt P08631) (assay: phosphorylation enrichment, bacterial display (enrichment ratio); higher = better substrate or ligand; peptides without Tyr show the background).
Hck, sequence (P08631 whole entry, looked up): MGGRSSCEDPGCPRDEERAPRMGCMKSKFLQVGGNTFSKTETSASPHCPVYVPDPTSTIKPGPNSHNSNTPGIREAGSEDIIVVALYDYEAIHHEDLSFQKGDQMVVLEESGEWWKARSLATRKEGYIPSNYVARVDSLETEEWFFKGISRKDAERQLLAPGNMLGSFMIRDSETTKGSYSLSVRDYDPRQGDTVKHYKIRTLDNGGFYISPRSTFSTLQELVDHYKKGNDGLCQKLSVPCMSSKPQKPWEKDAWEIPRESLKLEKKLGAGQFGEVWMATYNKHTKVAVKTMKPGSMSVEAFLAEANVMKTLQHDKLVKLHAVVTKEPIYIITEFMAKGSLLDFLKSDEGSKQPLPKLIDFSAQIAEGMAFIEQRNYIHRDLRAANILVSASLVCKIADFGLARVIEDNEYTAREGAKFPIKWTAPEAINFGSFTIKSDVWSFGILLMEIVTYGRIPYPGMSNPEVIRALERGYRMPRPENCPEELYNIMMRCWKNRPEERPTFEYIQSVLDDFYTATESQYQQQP
TQPSPYAVFLF [RPGRIP1_Y823_R827L_YF] was tested, and the phosphorylation enrichment was 3.69. With SLAARYYNWVS [FLT4_Y1230] the phosphorylation enrichment was 0.569. Sequence DVCKNYAEAKD [ALB_Y343] has a phosphorylation enrichment of 0.571. In the case of DVQNEYDSNHC [ZFYVE16_Y36_A35E], the phosphorylation enrichment is reported as 0.576. In the case of GFWPRYVKVGS [NOG_Y172_R167G], the phosphorylation enrichment is reported as 0.532. Work on ERNAHYRTPKI [PTK2B_Y699_R698H] yielded a phosphorylation enrichment of 0.332. QGIYGYHHHMQ [UFSP2_Y287_Y290H] showed a phosphorylation enrichment of 9.07. In the case of NELTFYCFKKD [CD59_Y87_C89Y_YF], the phosphorylation enrichment is reported as 0.448. Sequence PEAALYGRFTF [FYN_Y440_I445F] has a phosphorylation enrichment of 8.89. With SYNNKYGMVAQ [APOB_Y276_K273N] the phosphorylation enrichment was 0.476. ERTIEYLEEVV [HADHA_Y239_A244V] showed a phosphorylation enrichment of 0.498. FIAVGYVDDSQ [HLA-A_Y51_T55S] was tested, and the phosphorylation enrichment was 0.445. For DPGVSYRTREE [PDHA1_Y301], the phosphorylation enrichment was 0.461. IKSSIYDNRNE [ARAP2_Y380_K384N] gave a phosphorylation enrichment of 0.696. ELAINYQEQAS [SLC9A9_Y591] was tested, and the phosphorylation enrichment was 0.643. For EKFVPYYDLFM [IPO5_Y530], the phosphorylation enrichment was 3.27. DRLAVYIDRVR [LMNA_Y45] gave a phosphorylation enrichment of 0.434. For LPPGTYPSDFT [UNC5B_Y511_A516T], the phosphorylation enrichment was 0.613. In the case of LVRPPYSYSAL [FOXI1_Y126], the phosphorylation enrichment is reported as 0.528. For KDHPDYKYQLR [SOX10_Y171_P175L], the phosphorylation enrichment was 0.431. KVVVPYEPPEV [TP53_Y220_S215K] showed a phosphorylation enrichment of 0.406. Sequence AALSAYAAQRP [PTPRN2_Y249] has a phosphorylation enrichment of 0.386. In the case of SEPSGYQDNIA [DES_Y363_A360P], the phosphorylation enrichment is reported as 0.505. For LNSFIYSLRNR [OR1A1_Y288_P285S], the phosphorylation enrichment was 3.1. Work on SLAARYFNWVC [FLT4_Y1230_S1235C_YF] yielded a phosphorylation enrichment of 0.435. In the case of LEHCQYVTQKV [ALDOB_Y204_E207Q], the phosphorylation enrichment is reported as 0.507. PEQAAYQKVVA [HBB_Y131_V127E] gave a phosphorylation enrichment of 0.561. Sequence GNYSGYDDAWD [POLR1C_Y36] has a phosphorylation enrichment of 0.578. QNKEDYDGLKE [GSTO1_Y139_A140D] was tested, and the phosphorylation enrichment was 0.915. TNLVPYPCIHF [TUBA1A_Y262_R264C] was tested, and the phosphorylation enrichment was 0.534. Sequence LKGQVYILGWE [ASS1_Y359_R363W] has a phosphorylation enrichment of 0.508. With LLKANYELLNA [POLR3A_Y714_K713N] the phosphorylation enrichment was 0.459. In the case of RQEEEYKRLSE [SFSWAP_Y133], the phosphorylation enrichment is reported as 0.888.

These sequences were tested against Jak2 (UniProt O60674) in the same assay as above.
Jak2, sequence (O60674 whole entry, looked up): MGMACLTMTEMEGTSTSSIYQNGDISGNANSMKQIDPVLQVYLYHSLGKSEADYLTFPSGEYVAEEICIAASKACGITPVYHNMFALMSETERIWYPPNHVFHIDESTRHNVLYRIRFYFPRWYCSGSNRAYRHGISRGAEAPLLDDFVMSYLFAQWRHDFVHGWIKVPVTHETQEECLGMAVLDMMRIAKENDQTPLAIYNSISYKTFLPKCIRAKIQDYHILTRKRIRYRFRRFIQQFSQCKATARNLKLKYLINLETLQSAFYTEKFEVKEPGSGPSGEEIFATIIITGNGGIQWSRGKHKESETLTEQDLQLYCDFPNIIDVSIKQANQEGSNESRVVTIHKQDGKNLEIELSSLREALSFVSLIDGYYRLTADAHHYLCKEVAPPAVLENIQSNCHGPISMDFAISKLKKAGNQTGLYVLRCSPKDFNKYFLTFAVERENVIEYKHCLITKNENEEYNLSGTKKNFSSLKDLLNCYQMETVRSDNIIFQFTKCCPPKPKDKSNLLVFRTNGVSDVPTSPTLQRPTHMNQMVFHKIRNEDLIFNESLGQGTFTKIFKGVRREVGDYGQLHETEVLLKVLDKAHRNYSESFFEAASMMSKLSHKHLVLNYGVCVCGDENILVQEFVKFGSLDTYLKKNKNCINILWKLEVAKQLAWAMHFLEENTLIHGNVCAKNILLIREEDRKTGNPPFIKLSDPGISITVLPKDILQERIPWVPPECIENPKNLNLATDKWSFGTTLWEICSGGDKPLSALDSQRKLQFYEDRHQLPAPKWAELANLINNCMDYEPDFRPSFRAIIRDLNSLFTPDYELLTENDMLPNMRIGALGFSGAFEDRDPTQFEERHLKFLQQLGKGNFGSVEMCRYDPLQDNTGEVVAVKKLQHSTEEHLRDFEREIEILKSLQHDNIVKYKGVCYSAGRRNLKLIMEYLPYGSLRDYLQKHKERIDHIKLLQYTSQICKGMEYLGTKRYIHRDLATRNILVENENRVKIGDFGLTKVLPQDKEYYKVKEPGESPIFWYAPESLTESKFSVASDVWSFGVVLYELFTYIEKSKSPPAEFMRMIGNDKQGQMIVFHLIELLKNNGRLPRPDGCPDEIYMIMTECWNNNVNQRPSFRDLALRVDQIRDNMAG
Sequence TQPSPYAVFLF [RPGRIP1_Y823_R827L_YF] has a phosphorylation enrichment of 0.926. SLAARYYNWVS [FLT4_Y1230] showed a phosphorylation enrichment of 1.48. DVCKNYAEAKD [ALB_Y343] showed a phosphorylation enrichment of 1.14. For DVQNEYDSNHC [ZFYVE16_Y36_A35E], the phosphorylation enrichment was 0.701. GFWPRYVKVGS [NOG_Y172_R167G] was tested, and the phosphorylation enrichment was 0.695. In the case of ERNAHYRTPKI [PTK2B_Y699_R698H], the phosphorylation enrichment is reported as 0.559. QGIYGYHHHMQ [UFSP2_Y287_Y290H] showed a phosphorylation enrichment of 0.598. In the case of NELTFYCFKKD [CD59_Y87_C89Y_YF], the phosphorylation enrichment is reported as 1.12. Work on PEAALYGRFTF [FYN_Y440_I445F] yielded a phosphorylation enrichment of 1.41. In the case of SYNNKYGMVAQ [APOB_Y276_K273N], the phosphorylation enrichment is reported as 0.607. ERTIEYLEEVV [HADHA_Y239_A244V] showed a phosphorylation enrichment of 1.07. Work on FIAVGYVDDSQ [HLA-A_Y51_T55S] yielded a phosphorylation enrichment of 0.839. DPGVSYRTREE [PDHA1_Y301] was tested, and the phosphorylation enrichment was 0.549. With IKSSIYDNRNE [ARAP2_Y380_K384N] the phosphorylation enrichment was 0.466. ELAINYQEQAS [SLC9A9_Y591] was tested, and the phosphorylation enrichment was 0.832. EKFVPYYDLFM [IPO5_Y530] gave a phosphorylation enrichment of 1.47. Sequence DRLAVYIDRVR [LMNA_Y45] has a phosphorylation enrichment of 0.892. LPPGTYPSDFT [UNC5B_Y511_A516T] showed a phosphorylation enrichment of 0.571. In the case of LVRPPYSYSAL [FOXI1_Y126], the phosphorylation enrichment is reported as 1.03. KDHPDYKYQLR [SOX10_Y171_P175L] showed a phosphorylation enrichment of 0.656. With KVVVPYEPPEV [TP53_Y220_S215K] the phosphorylation enrichment was 1. AALSAYAAQRP [PTPRN2_Y249] gave a phosphorylation enrichment of 0.462. SEPSGYQDNIA [DES_Y363_A360P] gave a phosphorylation enrichment of 0.953. In the case of LNSFIYSLRNR [OR1A1_Y288_P285S], the phosphorylation enrichment is reported as 1.02. SLAARYFNWVC [FLT4_Y1230_S1235C_YF] was tested, and the phosphorylation enrichment was 0.997. LEHCQYVTQKV [ALDOB_Y204_E207Q] was tested, and the phosphorylation enrichment was 1.03. Sequence PEQAAYQKVVA [HBB_Y131_V127E] has a phosphorylation enrichment of 1.08. In the case of GNYSGYDDAWD [POLR1C_Y36], the phosphorylation enrichment is reported as 1.29. Work on QNKEDYDGLKE [GSTO1_Y139_A140D] yielded a phosphorylation enrichment of 1.13. TNLVPYPCIHF [TUBA1A_Y262_R264C] gave a phosphorylation enrichment of 0.753. LKGQVYILGWE [ASS1_Y359_R363W] was tested, and the phosphorylation enrichment was 1.14. With LLKANYELLNA [POLR3A_Y714_K713N] the phosphorylation enrichment was 0.857. RQEEEYKRLSE [SFSWAP_Y133] was tested, and the phosphorylation enrichment was 2.31.

These sequences were tested against MERTK (UniProt Q12866) in the same assay as above.
MERTK, sequence (Q12866 whole entry, looked up): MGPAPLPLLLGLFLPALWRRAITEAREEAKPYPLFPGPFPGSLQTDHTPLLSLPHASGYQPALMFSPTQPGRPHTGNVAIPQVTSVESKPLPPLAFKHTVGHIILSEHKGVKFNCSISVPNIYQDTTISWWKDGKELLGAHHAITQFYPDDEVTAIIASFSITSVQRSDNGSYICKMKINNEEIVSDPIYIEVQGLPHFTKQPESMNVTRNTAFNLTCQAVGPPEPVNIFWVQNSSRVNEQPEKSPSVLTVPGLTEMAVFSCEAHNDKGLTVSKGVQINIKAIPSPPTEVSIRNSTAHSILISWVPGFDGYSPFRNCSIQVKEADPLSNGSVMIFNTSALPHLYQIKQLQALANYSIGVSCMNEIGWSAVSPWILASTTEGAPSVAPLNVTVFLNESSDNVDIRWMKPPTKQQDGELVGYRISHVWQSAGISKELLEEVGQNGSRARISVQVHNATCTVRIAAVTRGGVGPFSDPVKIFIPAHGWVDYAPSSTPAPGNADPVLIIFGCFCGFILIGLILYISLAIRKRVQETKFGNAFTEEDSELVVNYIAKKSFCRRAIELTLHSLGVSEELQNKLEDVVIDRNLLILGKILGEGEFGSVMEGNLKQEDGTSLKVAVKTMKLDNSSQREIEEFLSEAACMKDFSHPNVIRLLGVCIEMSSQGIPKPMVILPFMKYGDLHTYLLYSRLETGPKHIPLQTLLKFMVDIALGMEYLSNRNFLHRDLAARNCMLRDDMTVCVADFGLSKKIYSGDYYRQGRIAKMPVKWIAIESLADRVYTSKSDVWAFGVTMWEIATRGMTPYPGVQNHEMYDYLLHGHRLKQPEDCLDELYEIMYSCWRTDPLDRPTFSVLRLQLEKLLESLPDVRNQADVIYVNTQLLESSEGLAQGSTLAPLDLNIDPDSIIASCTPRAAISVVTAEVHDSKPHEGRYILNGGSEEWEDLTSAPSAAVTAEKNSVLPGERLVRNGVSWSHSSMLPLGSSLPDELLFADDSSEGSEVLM
Sequence TQPSPYAVFLF [RPGRIP1_Y823_R827L_YF] has a phosphorylation enrichment of 7.59. SLAARYYNWVS [FLT4_Y1230] showed a phosphorylation enrichment of 5.97. With DVCKNYAEAKD [ALB_Y343] the phosphorylation enrichment was 0.448. Work on DVQNEYDSNHC [ZFYVE16_Y36_A35E] yielded a phosphorylation enrichment of 0.477. Sequence GFWPRYVKVGS [NOG_Y172_R167G] has a phosphorylation enrichment of 0.447. Work on ERNAHYRTPKI [PTK2B_Y699_R698H] yielded a phosphorylation enrichment of 0.37. Work on QGIYGYHHHMQ [UFSP2_Y287_Y290H] yielded a phosphorylation enrichment of 9.93. In the case of NELTFYCFKKD [CD59_Y87_C89Y_YF], the phosphorylation enrichment is reported as 0.381. With PEAALYGRFTF [FYN_Y440_I445F] the phosphorylation enrichment was 5.92. Work on SYNNKYGMVAQ [APOB_Y276_K273N] yielded a phosphorylation enrichment of 0.378. Work on ERTIEYLEEVV [HADHA_Y239_A244V] yielded a phosphorylation enrichment of 0.386. FIAVGYVDDSQ [HLA-A_Y51_T55S] was tested, and the phosphorylation enrichment was 0.3. Work on DPGVSYRTREE [PDHA1_Y301] yielded a phosphorylation enrichment of 0.378. IKSSIYDNRNE [ARAP2_Y380_K384N] gave a phosphorylation enrichment of 0.405. With ELAINYQEQAS [SLC9A9_Y591] the phosphorylation enrichment was 0.416. Work on EKFVPYYDLFM [IPO5_Y530] yielded a phosphorylation enrichment of 7.26. DRLAVYIDRVR [LMNA_Y45] was tested, and the phosphorylation enrichment was 0.41. Work on LPPGTYPSDFT [UNC5B_Y511_A516T] yielded a phosphorylation enrichment of 1.04. Work on LVRPPYSYSAL [FOXI1_Y126] yielded a phosphorylation enrichment of 2.06. KDHPDYKYQLR [SOX10_Y171_P175L] showed a phosphorylation enrichment of 0.38. KVVVPYEPPEV [TP53_Y220_S215K] showed a phosphorylation enrichment of 0.402. AALSAYAAQRP [PTPRN2_Y249] gave a phosphorylation enrichment of 0.312. SEPSGYQDNIA [DES_Y363_A360P] was tested, and the phosphorylation enrichment was 0.426. In the case of LNSFIYSLRNR [OR1A1_Y288_P285S], the phosphorylation enrichment is reported as 0.733. Work on SLAARYFNWVC [FLT4_Y1230_S1235C_YF] yielded a phosphorylation enrichment of 0.514. With LEHCQYVTQKV [ALDOB_Y204_E207Q] the phosphorylation enrichment was 0.401. In the case of PEQAAYQKVVA [HBB_Y131_V127E], the phosphorylation enrichment is reported as 0.483. Work on GNYSGYDDAWD [POLR1C_Y36] yielded a phosphorylation enrichment of 0.637. With QNKEDYDGLKE [GSTO1_Y139_A140D] the phosphorylation enrichment was 0.666. With TNLVPYPCIHF [TUBA1A_Y262_R264C] the phosphorylation enrichment was 0.578. Sequence LKGQVYILGWE [ASS1_Y359_R363W] has a phosphorylation enrichment of 0.428. LLKANYELLNA [POLR3A_Y714_K713N] gave a phosphorylation enrichment of 0.976. RQEEEYKRLSE [SFSWAP_Y133] was tested, and the phosphorylation enrichment was 0.804.

What follows are sequences tested on c-Abl (mouse) in the same assay as above.
For TQPSPYAVFLF [RPGRIP1_Y823_R827L_YF], the phosphorylation enrichment was 15.1. SLAARYYNWVS [FLT4_Y1230] gave a phosphorylation enrichment of 0.933. DVCKNYAEAKD [ALB_Y343] was tested, and the phosphorylation enrichment was 0.804. DVQNEYDSNHC [ZFYVE16_Y36_A35E] was tested, and the phosphorylation enrichment was 0.671. Work on GFWPRYVKVGS [NOG_Y172_R167G] yielded a phosphorylation enrichment of 0.568. With ERNAHYRTPKI [PTK2B_Y699_R698H] the phosphorylation enrichment was 0.615. QGIYGYHHHMQ [UFSP2_Y287_Y290H] was tested, and the phosphorylation enrichment was 4.62. Work on NELTFYCFKKD [CD59_Y87_C89Y_YF] yielded a phosphorylation enrichment of 0.758. PEAALYGRFTF [FYN_Y440_I445F] was tested, and the phosphorylation enrichment was 4.39. With SYNNKYGMVAQ [APOB_Y276_K273N] the phosphorylation enrichment was 0.61. ERTIEYLEEVV [HADHA_Y239_A244V] was tested, and the phosphorylation enrichment was 0.739. FIAVGYVDDSQ [HLA-A_Y51_T55S] showed a phosphorylation enrichment of 0.617. For DPGVSYRTREE [PDHA1_Y301], the phosphorylation enrichment was 0.647. In the case of IKSSIYDNRNE [ARAP2_Y380_K384N], the phosphorylation enrichment is reported as 0.397. ELAINYQEQAS [SLC9A9_Y591] showed a phosphorylation enrichment of 0.504. In the case of EKFVPYYDLFM [IPO5_Y530], the phosphorylation enrichment is reported as 0.787. With DRLAVYIDRVR [LMNA_Y45] the phosphorylation enrichment was 0.61. LPPGTYPSDFT [UNC5B_Y511_A516T] showed a phosphorylation enrichment of 1.78. LVRPPYSYSAL [FOXI1_Y126] was tested, and the phosphorylation enrichment was 0.641. In the case of KDHPDYKYQLR [SOX10_Y171_P175L], the phosphorylation enrichment is reported as 0.696. KVVVPYEPPEV [TP53_Y220_S215K] showed a phosphorylation enrichment of 1.02. Work on AALSAYAAQRP [PTPRN2_Y249] yielded a phosphorylation enrichment of 0.377. Sequence SEPSGYQDNIA [DES_Y363_A360P] has a phosphorylation enrichment of 0.753. In the case of LNSFIYSLRNR [OR1A1_Y288_P285S], the phosphorylation enrichment is reported as 0.866. With SLAARYFNWVC [FLT4_Y1230_S1235C_YF] the phosphorylation enrichment was 0.899. In the case of LEHCQYVTQKV [ALDOB_Y204_E207Q], the phosphorylation enrichment is reported as 0.727. PEQAAYQKVVA [HBB_Y131_V127E] gave a phosphorylation enrichment of 1. For GNYSGYDDAWD [POLR1C_Y36], the phosphorylation enrichment was 0.964. With QNKEDYDGLKE [GSTO1_Y139_A140D] the phosphorylation enrichment was 1.19. With TNLVPYPCIHF [TUBA1A_Y262_R264C] the phosphorylation enrichment was 0.646. LKGQVYILGWE [ASS1_Y359_R363W] was tested, and the phosphorylation enrichment was 0.804. With LLKANYELLNA [POLR3A_Y714_K713N] the phosphorylation enrichment was 0.949. RQEEEYKRLSE [SFSWAP_Y133] was tested, and the phosphorylation enrichment was 1.43.
